Values quoted from earlier work, collected in publication PMC11631806.

Molecular target: Cys32 (UniProt position 32, FSATWCGPCKM)
Conditions: not stated (reduced dithiol form implied by thiol titration)

## Thioredoxin (cytosolic Trx, Trx1) (Homo sapiens (inferred; the article does not name the species for these values))
  pKa: 6.3 ± 0.1
